The results in this text go back to paper PMC11076555, “Dishevelled2 activates WGEF via its interaction with a unique internal peptide motif of the GEF” (Communications Biology, 2024).

Sequences and labels used below:
B2: Human Dishevelled2 PDZ domain (domain or fragment, UniProt O14641 261-354, looked up)
chain: MSLNIITVTLNMEKYNFLGISIVGQSNERGDGGIYIGSIMKGGAVAADGRIEPGDMLLQVNDMNFENMSNDDAVRVLRDIVHKPGPIVLTVAKC
modifications: Monolith Red-maleimide 2nd generation cysteine-reactive fluorescent label (in the MST experiments)
notes: Dishevelled2 (Dvl2), human, PDZ domain; Addgene plasmid 38876 changed by a stop codon after C354 to remove the peptide fused at the C-terminus of the PDZ; Used unlabelled in the GEF assays and labelled in MST; also called Dvl2^PDZ; hDvl2^PDZ; source: E. coli Rosetta (DE3), purified (Ni-NTA, TEV cleavage, second Ni-NTA, gel filtration); not shown: His6, N-terminal, cleaved

The target of experiment [1] is B2. In words: MST; 50 nM fluorescently labelled Dvl2^PDZ (Red-maleimide, cysteine reactive); peptides serially diluted 1:2 16 times from about 3.4 mM, hWGEF (330-581) 138-0.0042 uM; 25 C, 30 min incubation; 10 mM Tris-HCl pH 8, 150 mM NaCl, 2 mM DTT, 5% glycerol, 0.05% Tween20; Monolith NT.115; triplicates. The note with it: both partners purified.
Experiment [2] addresses T1, human WGEF (330-581) (human, UniProt Q8IW93 330-581).
T1 construct: Weak-similarity guanine nucleotide exchange factor (WGEF, Arhgef19, Ephexin2), human, residues 330-581; also called hWGEF; hWGEF^330-581; not shown: GST, N-terminal, cleaved
T1 sequence (looked up): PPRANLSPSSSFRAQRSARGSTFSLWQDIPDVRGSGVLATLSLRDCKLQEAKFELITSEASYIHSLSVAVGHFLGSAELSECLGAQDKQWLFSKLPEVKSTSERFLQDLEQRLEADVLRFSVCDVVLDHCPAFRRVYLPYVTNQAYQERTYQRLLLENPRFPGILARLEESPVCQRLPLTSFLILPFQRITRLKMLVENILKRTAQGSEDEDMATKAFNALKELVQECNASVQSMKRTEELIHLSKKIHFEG
Described as above. To be noted: both partners purified.

Experiment [3] addresses Xenopus laevis WGEF (330-856) (Xenopus laevis). The experiment can be described thus: cell-based or functional assay.

B1: N3^pep (peptide)
peptide: EIVLWSDIP
notes: engineered peptide, closest homologue of WGEF^pep; structure with Dvl2^PDZ in PDB 3CC0; also called engineered internal peptide N3; source: synthetic peptide, bought: Sai Biotech
By Kd is commonly meant the concentration at which binding is half-saturated. Read a low Kd as tighter binding. Regarding B1, binding in experiment [1] was characterised by a dissociation constant (Kd) of 54 µM.

On to B2, for which the Kd in experiment [2] came to 7.9 µM. Also, the “GEF activity of xWGEF330 (5 uM) on Mant-GDP loaded RhoA with 0, 25 and 50 uM Dvl2^PDZ; no observable change at 25 uM” value in experiment [3] stood at 4 fold.

B3: WGEF^pep (internal PDZ binding motif peptide of WGEF) (peptide)
peptide: GSTFSLWQDIP
notes: also called WGEF IPM peptide; source: synthetic peptide, bought: Sai Biotech
In turn, B3 gave a Kd in experiment [1] of 45 µM.

B4: WGEF^pepL6A (peptide)
peptide: GSTFSAWQDIP
notes: WGEF (Arhgef19), human residues 349-359 with L6A; numbers count on: the peptide (1-11); L6 is L354 of human WGEF and L407 of Xenopus WGEF (from the printed limits); source: synthetic peptide, bought: Sai Biotech
Regarding B4, binding in experiment [1] was characterised by a dissociation constant (Kd) of 2400 µM.

B5: WGEF^pepI10A (peptide)
peptide: GSTFSLWQDAP
notes: WGEF (Arhgef19), human residues 349-359 with I10A; numbers count on: the peptide (1-11); I10 is I358 of human WGEF (from the printed limits); also called Ile at P1 to Ala; source: synthetic peptide, bought: Sai Biotech
B5 displayed a Kd in experiment [1] of 56 µM.

B6: WGEF^pepQ8A (peptide)
peptide: GSTFSLWADIP
notes: WGEF (Arhgef19), human residues 349-359 with Q8A; numbers count on: the peptide (1-11); Q8 is Q356 of human WGEF (from the printed limits); source: synthetic peptide, bought: Sai Biotech
Molecule B6 registered a Kd in experiment [1] of 8.5 µM.
